Assays:
[1] = system: Hsp90 complexes in K562 cell extract; test: Nano-LC-MS/MS of PU-beads pull-downs; assay type: binding; details: protein identified in PU-beads pull-down of K562 cell extract, QSTAR-Elite QTof MS
How it was run: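 Proteins were identified by data-dependent nano LC-MS/MS (QTof, ESI) and Mascot searching (p<0.05), then reported as spectral counts and coverage via Scaffold. Inputs were PU-bead versus control-bead pull-downs from lysate pre-cleared with control beads overnight at 4 °C, eluted by boiling in 2% SDS.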

[2] = system: Hsp90 complexes in Mia-PaCa-2 cell extract; test: Nano-LC-MS/MS of PU-beads pull-downs; assay type: binding, human; details: protein identified in PU-beads pull-down of Mia-PaCa-2 cell extract; QSTAR-Elite QTof MS
How it was run: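 They came from PU-bead pull-downs of pre-cleared lysates (control beads, overnight, 4 °C), eluted by boiling in 2% SDS, gel-separated and run by data-dependent nano-ESI QTof MS/MS.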

B1: NOP2 (protein, UniProt P46087 1-812, looked up)
28S rRNA …: MGRKLDPTKEKRGPGRKARKQKGAETELVRFLPAVSDENSKRLSSRARKRAAKRRLGSVEAPKTNKSPEAKPLPGKLPKGISAGAVQTAGKKGPQSLFNAPRGKKRPAPGSDEEEEEEDSEEDGMVNHGDLWGSEDDADTVDDYGADSNSEDEEEGEALLPIERAARKQKAREAAAGIQWSEEETEDEEEEKEVTPESGPPKVEEADGGLQINVDEEPFVLPPAGEMEQDAQAPDLQRVHKRIQDIVGILRDFGAQREEGRSRSEYLNRLKKDLAIYYSYGDFLLGKLMDLFPLSELVEFLEANEVPRPVTLRTNTLKTRRRDLAQALINRGVNLDPLGKWSKTGLVVYDSSVPIGATPEYLAGHYMLQGASSMLPVMALAPQEHERILDMCCAPGGKTSYMAQLMKNTGVILANDANAERLKSVVGNLHRLGVTNTIISHYDGRQFPKVVGGFDRVLLDAPCSGTGVISKDPAVKTNKDEKDILRCAHLQKELLLSAIDSVNATSKTGGYLVYCTCSITVEENEWVVDYALKKRNVRLVPTGLDFGQEGFTRFRERRFHPSLRSTRRFYPHTHNMDGFFIAKFKKFSNSIPQSQTGNSETATPTNVDLPQVIPKSENSSQPAKKAKGAAKTKQQLQKQQHPKKASFQKLNGISKGADSELSTVPSVTKTQASSSFQDSSQPAGKAEGIREPKVTGKLKQRSPKLQSSKKVAFLRQNAPPKGTDTQTPAVLSPSKTQATLKPKDHHQPLGRAKGVEKQQLPEQPFEKAAFQKQNDTPKGPQPPTVSPIRSSRPPPAKRKKSQSRGNSQLLLS
- Number of Assigned Spectra, K562 Prep 1 [1]: 0
- Number of Assigned Spectra, K562 Prep 2 [1]: 0
- Number of Assigned Spectra, Mia-Paca 2 [2]: 7

B2: VAC14 (protein, UniProt Q08AM6 1-782, looked up)
Protein VAC14 homolog: MNPEKDFAPLTPNIVRALNDKLYEKRKVAALEIEKLVREFVAQNNTVQIKHVIQTLSQEFALSQHPHSRKGGLIGLAACSIALGKDSGLYLKELIEPVLTCFNDADSRLRYYACEALYNIVKVARGAVLPHFNVLFDGLSKLAADPDPNVKSGSELLDRLLKDIVTESNKFDLVSFIPLLRERIYSNNQYARQFIISWILVLESVPDINLLDYLPEILDGLFQILGDNGKEIRKMCEVVLGEFLKEIKKNPSSVKFAEMANILVIHCQTTDDLIQLTAMCWMREFIQLAGRVMLPYSSGILTAVLPCLAYDDRKKSIKEVANVCNQSLMKLVTPEDDELDELRPGQRQAEPTPDDALPKQEGTASGGPDGSCDSSFSSGISVFTAASTERAPVTLHLDGIVQVLNCHLSDTAIGMMTRIAVLKWLYHLYIKTPRKMFRHTDSLFPILLQTLSDESDEVILKDLEVLAEIASSPAGQTDDPGPLDGPDLQASHSELQVPTPGRAGLLNTSGTKGLECSPSTPTMNSYFYKFMINLLKRFSSERKLLEVRGPFIIRQLCLLLNAENIFHSMADILLREEDLKFASTMVHALNTILLTSTELFQLRNQLKDLKTLESQNLFCCLYRSWCHNPVTTVSLCFLTQNYRHAYDLIQKFGDLEVTVDFLAEVDKLVQLIECPIFTYLRLQLLDVKNNPYLIKALYGLLMLLPQSSAFQLLSHRLQCVPNPELLQTEDSLKAAPKSQKADSPSIDYAELLQHFEKVQNKHLEVRHQRSGRGDHLDRRVVL
- Number of Assigned Spectra, K562 Prep 1 [1]: 5
- Number of Assigned Spectra, K562 Prep 2 [1]: 2
- Number of Assigned Spectra, Mia-Paca 2 [2]: 0

B3: LRRC40 (protein, UniProt Q9H9A6 1-602, looked up)
Leucine-rich …: MSRLKRIAGQDLRAGFKAGGRDCGTSVPQGLLKAARKSGQLNLSGRNLSEVPQCVWRINVDIPEEANQNLSFGATERWWEQTDLTKLIISNNKLQSLTDDLRLLPALTVLDIHDNQLTSLPSAIRELENLQKLNVSHNKLKILPEEITNLRNLKCLYLQHNELTCISEGFEQLSNLEDLDLSNNHLTTVPASFSSLSSLVRLNLSSNELKSLPAEINRMKRLKHLDCNSNLLETIPPELAGMESLELLYLRRNKLRFLPEFPSCSLLKELHVGENQIEMLEAEHLKHLNSILVLDLRDNKLKSVPDEIILLRSLERLDLSNNDISSLPYSLGNLHLKFLALEGNPLRTIRREIISKGTQEVLKYLRSKIKDDGPSQSESATETAMTLPSESRVNIHAIITLKILDYSDKQATLIPDEVFDAVKSNIVTSINFSKNQLCEIPKRMVELKEMVSDVDLSFNKLSFISLELCVLQKLTFLDLRNNFLNSLPEEMESLVRLQTINLSFNRFKMLPEVLYRIFTLETILISNNQVGSVDPQKMKMMENLTTLDLQNNDLLQIPPELGNCVNLRTLLLDGNPFRVPRAAILMKGTAAILEYLRDRIPT
- Number of Assigned Spectra, K562 Prep 1 [1]: 4
- Number of Assigned Spectra, K562 Prep 2 [1]: 3
- Number of Assigned Spectra, Mia-Paca 2 [2]: 0

B4: PRPF31 (protein, UniProt Q8WWY3 1-499, looked up)
U4/U6 small nuclear …: MSLADELLADLEEAAEEEEGGSYGEEEEEPAIEDVQEETQLDLSGDSVKTIAKLWDSKMFAEIMMKIEEYISKQAKASEVMGPVEAAPEYRVIVDANNLTVEIENELNIIHKFIRDKYSKRFPELESLVPNALDYIRTVKELGNSLDKCKNNENLQQILTNATIMVVSVTASTTQGQQLSEEELERLEEACDMALELNASKHRIYEYVESRMSFIAPNLSIIIGASTAAKIMGVAGGLTNLSKMPACNIMLLGAQRKTLSGFSSTSVLPHTGYIYHSDIVQSLPPDLRRKAARLVAAKCTLAARVDSFHESTEGKVGYELKDEIERKFDKWQEPPPVKQVKPLPAPLDGQRKKRGGRRYRKMKERLGLTEIRKQANRMSFGEIEEDAYQEDLGFSLGHLGKSGSGRVRQTQVNEATKARISKTLQRTLQKQSVVYGGKSTIRDRSSGTASSVAFTPLQGLEIVNPQAAEKKVAEANQKYFSSMAEFLKVKGEKSGLMST
- Number of Assigned Spectra, K562 Prep 1 [1]: 3
- Number of Assigned Spectra, K562 Prep 2 [1]: 2
- Number of Assigned Spectra, Mia-Paca 2 [2]: 0

B5: PRPF3 (protein, UniProt O43395 1-683, looked up)
U4/U6 small nuclear …: MALSKRELDELKPWIEKTVKRVLGFSEPTVVTAALNCVGKGMDKKKAADHLKPFLDDSTLRFVDKLFEAVEEGRSSRHSKSSSDRSRKRELKEVFGDDSEISKESSGVKKRRIPRFEEVEEEPEVIPGPPSESPGMLTKLQIKQMMEAATRQIEERKKQLSFISPPTPQPKTPSSSQPERLPIGNTIQPSQAATFMNDAIEKARKAAELQARIQAQLALKPGLIGNANMVGLANLHAMGIAPPKVELKDQTKPTPLILDEQGRTVDATGKEIELTHRMPTLKANIRAVKREQFKQQLKEKPSEDMESNTFFDPRVSIAPSQRQRRTFKFHDKGKFEKIAQRLRTKAQLEKLQAEISQAARKTGIHTSTRLALIAPKKELKEGDIPEIEWWDSYIIPNGFDLTEENPKREDYFGITNLVEHPAQLNPPVDNDTPVTLGVYLTKKEQKKLRRQTRREAQKELQEKVRLGLMPPPEPKVRISNLMRVLGTEAVQDPTKVEAHVRAQMAKRQKAHEEANAARKLTAEQRKVKKIKKLKEDISQGVHISVYRVRNLSNPAKKFKIEANAGQLYLTGVVVLHKDVNVVVVEGGPKAQKKFKRLMLHRIKWDEQTSNTKGDDDEESDEEAVKKTNKCVLVWEGTAKDRSFGEMKFKQCPTENMAREHFKKHGAEHYWDLALSESVLESTD
- Number of Assigned Spectra, K562 Prep 1 [1]: 3
- Number of Assigned Spectra, K562 Prep 2 [1]: 0
- Number of Assigned Spectra, Mia-Paca 2 [2]: 0

B6: NOP14 (protein, UniProt P78316 1-857, looked up)
Nucleolar protein 14: MAKAKKVGARRKASGAPAGARGGPAKANSNPFEVKVNRQKFQILGRKTRHDVGLPGVSRARALRKRTQTLLKEYKERDKSNVFRDKRFGEYNSNMSPEEKMMKRFALEQQRHHEKKSIYNLNEDEELTHYGQSLADIEKHNDIVDSDSDAEDRGTLSAELTAAHFGGGGGLLHKKTQQEGEEREKPKSRKELIEELIAKSKQEKRERQAQREDALELTEKLDQDWKEIQTLLSHKTPKSENRDKKEKPKPDAYDMMVRELGFEMKAQPSNRMKTEAELAKEEQEHLRKLEAERLRRMLGKDEDENVKKPKHMSADDLNDGFVLDKDDRRLLSYKDGKMNVEEDVQEEQSKEASDPESNEEEGDSSGGEDTEESDSPDSHLDLESNVESEEENEKPAKEQRQTPGKGLISGKERAGKATRDELPYTFAAPESYEELRSLLLGRSMEEQLLVVERIQKCNHPSLAEGNKAKLEKLFGFLLEYVGDLATDDPPDLTVIDKLVVHLYHLCQMFPESASDAIKFVLRDAMHEMEEMIETKGRAALPGLDVLIYLKITGLLFPTSDFWHPVVTPALVCLSQLLTKCPILSLQDVVKGLFVCCLFLEYVALSQRFIPELINFLLGILYIATPNKASQGSTLVHPFRALGKNSELLVVSAREDVATWQQSSLSLRWASRLRAPTSTEANHIRLSCLAVGLALLKRCVLMYGSLPSFHAIMGPLQALLTDHLADCSHPQELQELCQSTLTEMESQKQLCRPLTCEKSKPVPLKLFTPRLVKVLEFGRKQGSSKEEQERKRLIHKHKREFKGAVREIRKDNQFLARMQLSEIMERDAERKRKVKQLFNSLATQEGEWKALKRKKFKK
- Number of Assigned Spectra, K562 Prep 1 [1]: 9
- Number of Assigned Spectra, K562 Prep 2 [1]: 2
- Number of Assigned Spectra, Mia-Paca 2 [2]: 0

B7: NOB1 (protein, UniProt Q9ULX3 2-412, looked up)
RNA-binding protein NOB1: APVEHVVADAGAFLRHAALQDIGKNIYTIREVVTEIRDKATRRRLAVLPYELRFKEPLPEYVRLVTEFSKKTGDYPSLSATDIQVLALTYQLEAEFVGVSHLKQEPQKVKVSSSIQHPETPLHISGFHLPYKPKPPQETEKGHSACEPENLEFSSFMFWRNPLPNIDHELQELLIDRGEDVPSEEEEEEENGFEDRKDDSDDDGGGWITPSNIKQIQQELEQCDVPEDVRVGCLTTDFAMQNVLLQMGLHVLAVNGMLIREARSYILRCHGCFKTTSDMSRVFCSHCGNKTLKKVSVTVSDDGTLHMHFSRNPKVLNPRGLRYSLPTPKGGKYAINPHLTEDQRFPQLRLSQKARQKTNVFAPDYIAGVSPFVENDISSRSATLQVRDSTLGAGRRRLNPNASRKKFVKKR
- Number of Assigned Spectra, K562 Prep 1 [1]: 5
- Number of Assigned Spectra, K562 Prep 2 [1]: 0
- Number of Assigned Spectra, Mia-Paca 2 [2]: 0
